Assay results reported in publication PMC7668044, “Insights into bacterial cell division from a structure of EnvC bound to the FtsX periplasmic domain” (Proceedings of the National Academy of Sciences of the …, 2020).

Molecular target: T1, mature EnvC (murein hydrolase activator), non-tagged, co-expressed for crystallisation (E. coli, UniProt P37690 35-419)
T1 construct: EnvC, E. coli, mature protein
T1 sequence (looked up): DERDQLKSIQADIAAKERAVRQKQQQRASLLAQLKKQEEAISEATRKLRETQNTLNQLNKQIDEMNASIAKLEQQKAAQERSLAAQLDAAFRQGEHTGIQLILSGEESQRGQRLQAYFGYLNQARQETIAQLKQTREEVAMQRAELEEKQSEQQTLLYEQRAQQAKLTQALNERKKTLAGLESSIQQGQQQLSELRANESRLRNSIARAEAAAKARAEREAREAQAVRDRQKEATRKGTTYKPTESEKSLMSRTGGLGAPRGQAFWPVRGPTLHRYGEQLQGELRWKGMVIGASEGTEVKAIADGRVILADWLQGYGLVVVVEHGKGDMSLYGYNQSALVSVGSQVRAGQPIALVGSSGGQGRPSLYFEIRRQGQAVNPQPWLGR
Assay: crystal structure; X-ray, 2.1 Å, space group P2(1)2(1)2(1); His-tagged FtsX periplasmic domain and non-tagged EnvC coexpressed and copurified by Ni-IMAC; molecular replacement
Details: both partners purified

stoichiometry N: 2 FtsX periplasmic domains per EnvC
B1: FtsX periplasmic domain, histidine-tagged, co-expressed for crystallisation (domain or fragment, E. coli)
chain: QITVYLQKTLDDDAAAGVVAQLQAEQGVEKVNYLSREDALGEFRNWSGFGGALDMLEENPLPAVAVVIPKLDFQGTESLNTLRDRITQINGIDEVRMDDS
notes: FtsX periplasmic domain (between the first and second transmembrane helix), E. coli; The two-hybrid construct of the same domain is residues 110 to 209; also called FtsX I; FtsX II; source: E. coli C43(DE3), coexpressed with non-tagged EnvC from a pETDuet1-based vector, copurified by Ni-IMAC
